The source of these data is US20180066060A1.

This assay deals with human CD303 antigen (human) (UniProt Q8WTT0). The experiment in a line: cell-based or functional assay.
human CD303 antigen (human), sequence (Q8WTT0 whole entry): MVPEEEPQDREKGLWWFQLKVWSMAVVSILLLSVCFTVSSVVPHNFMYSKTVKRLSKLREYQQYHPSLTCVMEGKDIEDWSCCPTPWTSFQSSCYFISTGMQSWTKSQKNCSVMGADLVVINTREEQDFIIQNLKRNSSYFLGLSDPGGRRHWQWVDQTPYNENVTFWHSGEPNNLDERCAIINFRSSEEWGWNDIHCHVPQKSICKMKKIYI

B1: humanized anti-CD303 antibody BIIB059 (antibody, INN chains, looked up, V domains shown)
VH: DVQLVESGGGLVKPGGSLRLSCAASGFTFSTYTMSWVRQAPGKGLEWVATISPGDSFGYYYPDSVQGRFTISRDNAKNSLYLQMNSLRAEDTAVYYCTRDIYYNYGAWFAYWGQGTLVTVSS
VL: DIQLTQSPSSLSASVGDRVTITCKASQSVDYDGDSYMNWYQQKPGKAPKLLIYAASTLESGVPSRFSGSGSGTDFTLTISSLQPEDFATYYCQQANEDPRTFGQGTKVEIK
Molecule B1 came in with an EC50 (ng/mL), ADCC activity via CD16a of 1.68 ng/mL and an Emax (% lysis), ADCC activity via CD16a of 29.3 % lysis.
